From patent US20260151494A1 (ARO BIOTHERAPEUTICS, published 2026)

How the values were obtained:
[1] = target: T1, human CD71 extracellular domain (CD71-ECD) (human, UniProt P02786 89-760); assay: primary ELISA, RLU ratio to HSA
T1 construct: also called hCD71; human CD71-ECD

[2] = target: T1, human CD71 extracellular domain …; assay: primary ELISA; note: test concentration or dose not given here

T1 sequence (P02786 89-760): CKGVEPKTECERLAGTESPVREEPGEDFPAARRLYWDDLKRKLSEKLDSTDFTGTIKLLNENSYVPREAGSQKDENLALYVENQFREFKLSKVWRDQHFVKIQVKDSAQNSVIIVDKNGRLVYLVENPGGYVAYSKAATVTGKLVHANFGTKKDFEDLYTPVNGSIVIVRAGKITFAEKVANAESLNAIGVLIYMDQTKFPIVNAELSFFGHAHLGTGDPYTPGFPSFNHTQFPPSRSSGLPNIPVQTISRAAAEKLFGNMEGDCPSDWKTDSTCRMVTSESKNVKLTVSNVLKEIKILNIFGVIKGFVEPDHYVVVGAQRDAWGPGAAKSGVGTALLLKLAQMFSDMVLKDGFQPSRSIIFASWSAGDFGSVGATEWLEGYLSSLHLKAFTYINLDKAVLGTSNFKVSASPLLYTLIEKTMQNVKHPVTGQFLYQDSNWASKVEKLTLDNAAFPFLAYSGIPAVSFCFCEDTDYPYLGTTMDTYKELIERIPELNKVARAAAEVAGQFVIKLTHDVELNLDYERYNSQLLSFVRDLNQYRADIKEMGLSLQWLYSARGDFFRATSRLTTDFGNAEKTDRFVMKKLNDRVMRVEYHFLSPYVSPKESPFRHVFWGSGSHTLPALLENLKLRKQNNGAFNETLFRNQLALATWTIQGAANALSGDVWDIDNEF

Binder | hCD71:HSA [1] | RLU [2] [RLU]
CD71-binding FN3 domain SEQ ID NO: 263 (designed binder) MSLPAPKNLVVSRVTEDSARLSWTAPDAAFDSFEIGYFENLYLGEAIVLTVPGSERSYDLTGLKPGTEYWVQIGGVKGGNWSSPLSAIFTT | 208 | 3.32e+06
CD71-binding FN3 domain SEQ ID NO: 254 (designed binder) MSLPAPKNLVVSRVTEDSARLSWTAPDAAFDSFEIGYFENLYLGEAIVLWVPGSERSYDLTGLKPGTEYWVQIGGVKGGNWSAPLSAIFTT | 289 | 3.29e+06
CD71-binding FN3 domain SEQ ID NO: 269 (designed binder) MSLPAPKNLVVSRVTEDSARLSWTAPDAAFDSFEIGYFENDYFGEAIVLTVPGSERSYDLTGLKPGTEYVVFIGGVKGGNWSAPLSAIFTT | 348 | 4.35e+06
CD71-binding FN3 domain SEQ ID NO: 282 (designed binder) MSLPAPKNLVVSRVTEDSARLSWTAPDAAFDSFDIGYFELTWYGEAIVLTVPGSERSYDLTGLKPGTEYWVSIGGVKGGRFSEPLYARFTT | 240 | 3.2e+06
CD71-binding FN3 domain SEQ ID NO: 280 (designed binder) MSLPAPKNLVVSRVTEDSARLSWTALDAAFDSFEIGYFENLYLGEAIVLTVPGSERSYDLTGLKPGTEYWVQIGGVKGGNWSAPLSAIFTT | 103 | 3.21e+06
CD71-binding FN3 domain SEQ ID NO: 283 (designed binder) MSLPAPKNLVVSRVTEDSARLSWTAPDAAFDSFEIAYQELSLWGEAIVLTVPGSERSYDLTGLKPGTEYYVHIGGVKGGIWSSPLSAYSTT | 77 | 2.07e+06
CD71-binding FN3 domain SEQ ID NO: 296 (designed binder) MSLPAPKNLVVSRVTEDSARLSWTAPDAAFDSFDIGYFELTWYGEAIVLTVPGSERSYDLTGLKPGTEYWVSIGGVKGGIWSSPLSAIFTT | 99 | 3.39e+06
CD71-binding FN3 domain SEQ ID NO: 257 (designed binder) MSLPAPKNLVVSHVTEDSARLSWTAPDAAFDSFEIGYWENAYKGEAIVLTVPGSERSYDLTGLKPGTEYVVFIGGVKGGVWSVPLSAIFTT | 378 | 2.83e+06
CD71-binding FN3 domain SEQ ID NO: 298 (designed binder) MSLPAPKNLVVSRVTEDSARLSWTAPDAAFDSFEIGYFENLYLGEAIVLTVPGSERSYDLTGLKPGTEYWVQIGGVKGDNWSAPLSAIFTT | 287 | 3.67e+06
CD71-binding FN3 domain SEQ ID NO: 244 (designed binder) MSLPAPKNLVVSRVTEDSARLSWTAPDAAFDSFEIGYFENLYLGEAIVLTVPGSERSYDLTGLKPGTEYVVFIGGVKGGEYSIPLSAIFTT | 392 | 3.25e+06
CD71-binding FN3 domain SEQ ID NO: 289 (designed binder) MSLPAPKNLVVSRVTEDSARLSWTAPDAAFDSFEIAYFEIAWLGEAIVLTVPGSERSYDLTGLKPGTEYWVQIGGVKGGAYSTPLSAIFTT | 77 | 3.57e+06
CD71-binding FN3 domain SEQ ID NO: 272 (designed binder) MSLPAPKNLVVSRVTEDSARLSWTAPDAAFDSFEIAYGEAAYDGEAIALLVPGSERSYDLTGLKPGTEYWVQIGGVKGGNWSAPLSAIFTT | 289 | 2.83e+06
CD71-binding FN3 domain SEQ ID NO: 275 (designed binder) MSLPAPKNLVVSRVTEDSARLSWTAPDAAFDSFEIGYFENLYLGEAIVLTVPGSERSYDLTGLKPGTEYWVQIGGVKGGNWSAPLVAEFTT | 322 | 3.4e+06
CD71-binding FN3 domain SEQ ID NO: 299 (designed binder) MSLPAPKNLVVSRVTEDSARLSWTAPDAAFDSFEIAYFENLYLGEAIVLTVPGSERSYDLTGLKPGTEYWVQIGGVKGGNWSAPLSAIFTT | 375 | 3.26e+06
CD71-binding FN3 domain SEQ ID NO: 274 (designed binder) MSLPAPKNLVVSRVTEDSARLSWTAPDAAFDSFEIVYWEQVGVGEAIVLTVPGSERSYDLTGLKPGTEYWVQIGGVKGGGFSEPLSAIFTT | 296 | 2.37e+06
CD71-binding FN3 domain SEQ ID NO: 271 (designed binder) MSLPAPKNLVVSRITEDSARLSWTAPDAAFDSFEIGYWENAYKGEAIVLTVPGSERSYDLTGLKPGTEYVVFIGGVKGGVWSVPLSAIFTT | 180 | 2.57e+06
CD71-binding FN3 domain SEQ ID NO: 292 (designed binder) MSLPAPKNLVVSRVTEDSARLSWTAPDAAFDSFEIGYWENAYKGEAIVLTVPGSERSYDLTGLKPGTEYVVFIGGVKGGVWSVSLSAIFTT | 291 | 4.33e+06
CD71-binding FN3 domain SEQ ID NO: 278 (designed binder) MSLPAPKNLVVSRVTEDSARLSWTAPDAAFDSFEIGYFENLYLGEAIVLTVPGSERSHDLTGLKPGTEYWVQIGGVKGGNWSAPLSAIFTT | 435 | 3.46e+06
CD71-binding FN3 domain SEQ ID NO: 246 (designed binder) MSLPAPKNLVVSRVTEDSARLSWTAPDAAFDSFEIAYQELSLWGEAIVLTVPGSERSYDLTGLKPGTEYYVHIGGVKGGIWSSPLSAYFTT | 362 | 3.68e+06
CD71-binding FN3 domain SEQ ID NO: 239 (designed binder) MSLPAPKNLVVSRVTEDSARLSWTAPDAAFDSFEIVYQENSAYGEAIVLTVPGSERSYDLTGLKPGTEYWVQIGGVKGGNWSAPLSAIFTT | 154 | 1.88e+06

Second part, the binder after the results:

hCD71:HSA [1] | RLU [2] [RLU] | Binder
576 | 3.86e+06 | CD71-binding FN3 domain SEQ ID NO: 238 (designed binder) MSLPAPKNLVVSRVTEDSARLSWTAPDAAFDSFEIGYFENDYFGEAIVLTVPGSERSYDLTGLKPGTEYVVFIGGVKGGKWSAPLSAIFTT
375 | 3.49e+06 | CD71-binding FN3 domain SEQ ID NO: 248 (designed binder) MSLPAPKNLVVSRVTEDSARLSWTAPDAAFDSFEIGYFENLYLGEAIVLTVPGSERSYDLTGLKPGTEYVVFIGGVKGGDFSPPLSAIFTT
201 | 2.81e+06 | CD71-binding FN3 domain SEQ ID NO: 285 (designed binder) MSLPAPKNLVVSRVTEDSARLSWTATDAAFDSFEIGYWENAYKGEAIVLTVPGSERSYDLTGLKPGTEYVVFIGGVKGGVWSVPLSAIFTT
90 | 3.73e+06 | CD71-binding FN3 domain SEQ ID NO: 255 (designed binder) MSLPAPKNLVVSRVTEDSARLSWTTPDAAFDSFEIAYFEIAWLGEAIVLTVPGSERSYDLTGLKPGTEYWVQIGGVKGGAYSTPLSAIFTT
442 | 2.89e+06 | CD71-binding FN3 domain SEQ ID NO: 247 (designed binder) MSLPAPKNLVVSRVTEDSARLSWTAPDAAFDSFEIGYFENLYLGEAIVLTVPGSERSYDLTGLKPGTEYWVQIGGVKGGEWSAPLSAIFTT
165 | 1.61e+06 | CD71-binding FN3 domain SEQ ID NO: 242 (designed binder) MSLPAPKNLVVSRVTEDSARLSWTAPDAAFDSFEIGYFENLYLGEAIVLTVPGSERSYDLTGLKPGTKYWVQIGGVKGGNWSAPLSAIFTT
195 | 2.37e+06 | CD71-binding FN3 domain SEQ ID NO: 284 (designed binder) MSLPAPKNLVVSRVTEDSARLSWTAPDAAFDSFEIGYWENAYKGEAIVLTVPGSERSYDLTGLKPGTEYMVFIGGVKGGVWSVPLSAIFTT
140 | 3.41e+06 | CD71-binding FN3 domain SEQ ID NO: 250 (designed binder) MSLPAPKNLVVSRVTEDSARLSWTAPDAAFDSFEIGYFENLYLGEAIVLTVPGSERSYDLTGLKPGTEYWVQIGGVNGGNWSAPLSAIFTT
62 | 3.13e+06 | CD71-binding FN3 domain SEQ ID NO: 276 (designed binder) MSLPAPKNLVVSRVTEDSARLSWTAPDAAFDSFEIAYFELDYVGEAIVLTVPGSERSYDLTGLKPGTEYWVQIGGVKGGTWSGPLSAIFTI
276 | 4.13e+06 | CD71-binding FN3 domain SEQ ID NO: 277 (designed binder) MSLPAPKNLVVSRVTEDSARLSWTAPDAAFDSFEIGYFELTYYGEAIVLTVPGSERSYDLTGLKPGTEYWVQIGGVKGGGFSEPLSAIFTT
193 | 2.39e+06 | CD71-binding FN3 domain SEQ ID NO: 256 (designed binder) MSLPVPKNLVVSRVTEDSARLSWTAPDAAFDSFEIGYFENLYLGEAIVLTVPGSERSYDLTGLKPGTEYWVQIGGVKGGNWSAPLSAIFTT
131 | 2.66e+06 | CD71-binding FN3 domain SEQ ID NO: 286 (designed binder) MSLPAPKNLVVSRVTEDSARLSWTAPDAAFDSFEIVYAEPVRFGEAIVLTVPGSERSYDLTGLKPGTEYWVQIGGVKGGEWSSPLSAIFTT
724 | 4.09e+06 | CD71-binding FN3 domain SEQ ID NO: 251 (designed binder) MSLPAPKNLVVSRVTEDSARLSWTAPDAAFDSFEIGYFENLYLGEAIVLTVPGSERSYDLTGLKPGTEYWVQIGGVKGGNWSAPLVATFTT
512 | 2.64e+06 | CD71-binding FN3 domain SEQ ID NO: 297 (designed binder) MSLPAPKNLVVSRVTEDSARLSWTAPDAAFDSFEISYFENTWYGEAIVLTVPGSERSYDLTGLKPGTEYSVRIFGVKGGNFSFPLSAIFTT
350 | 3.02e+06 | CD71-binding FN3 domain SEQ ID NO: 249 (designed binder) MSLPAPKNLVVSRVTEDSARLSWTAPDAAFDSFEIGYWENAYRGEAIVLTVPGSERSYDLTGLKPGTEYVVFIGGVKGGVWSVPLSAIFTT
133 | 4.1e+06 | CD71-binding FN3 domain SEQ ID NO: 268 (designed binder) MSLPAPKNLVVSRVTEDSARLSWTAPDAAFDSFEIGYFENLYLGEAIVLTVPGSERSYDPTGLKPGTEYWVQIGGVKGGNWSAPLSAIFTT
